Laboratory results as given in patent US20240350588A1 (SUNSHINE LAKE PHARMA, published 2024).

T1: human GFRAL (UniProtKB-Q6UXVO) (human, UniProt Q6UXV0 19-394)
T1 sequence (looked up): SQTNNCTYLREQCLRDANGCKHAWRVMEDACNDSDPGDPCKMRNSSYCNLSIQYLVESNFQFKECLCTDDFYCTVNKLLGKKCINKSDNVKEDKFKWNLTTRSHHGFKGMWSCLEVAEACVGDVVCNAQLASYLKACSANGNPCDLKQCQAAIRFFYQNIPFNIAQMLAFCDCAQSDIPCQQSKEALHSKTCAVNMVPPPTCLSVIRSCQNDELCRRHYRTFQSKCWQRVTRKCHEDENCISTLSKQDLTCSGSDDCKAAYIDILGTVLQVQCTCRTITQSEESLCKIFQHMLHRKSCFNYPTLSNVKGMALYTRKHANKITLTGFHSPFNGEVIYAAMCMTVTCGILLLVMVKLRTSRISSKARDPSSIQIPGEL

B1: Fc-GDF15 fusion protein M37 (Fc fusion)
chain: APEAAGGPSVFLFPPKPKDTLMISRTPEVTCVVVDVSQEDPEVQFNWYVDGVEVHNAKTKPREEQFNSTYRVVSVLTVLHQDWLNGKEYKCKVSNKGLPSSIEKTISKAKGQPREPQVYTLPPSQEEMTKNQVSLTCLVKGFYPSDIAVEWESNGQPENNYKTTPPVLDSDGSFFLYSRLTVDKSRWQEGNVFSCSVMHEALHNHYTQESLSLSLGGGGGSGGGGSAPAPAPAPAPAPAPAPAPAPGGGGSGGGGSCRLHTVRASLEDLGWADWVLSPREVQVTMCIGACPSQFRAANMHAQIKTSLHRLKPDTVPAPCCVPASYNPMVLIQKTDTGVSLQTYDDLLAKDCHCI
B2: Fc-GDF15 fusion protein M29 (Fc fusion)
chain: APEAAGGPSVFLFPPKPKDTLMISRTPEVTCVVVDVSQEDPEVQFNWYVDGVEVHNAKTKPREEQFNSTYRVVSVLTVLHQDWLNGKEYKCKVSNKGLPSSIEKTISKAKGQPREPQVYTLPPSQEEMTKNQVSLTCLVKGFYPSDIAVEWESNGQPENNYKTTPPVLDSDGSFFLYSRLTVDKSRWQEGNVFSCSVMHEALHNHYTQESLSLSLGGGGGSGGGGSAPAPAPAPAPAPAPAPAPAPGGGGSGGGGSDHCPLGPGRCCRLHTVRASLEDLGWADWVLSPREVQVTMCIGDCPSQFRAANMHAQIKTSLHRLKPDTVPAPCCVPASYNPMVLIQKTDTGVSLQTYDDLLAKDCHCI
B3: Fc-GDF15 fusion protein M33 (Fc fusion)
chain: APEAAGGPSVFLFPPKPKDTLMISRTPEVTCVVVDVSQEDPEVQFNWYVDGVEVHNAKTKPREEQFNSTYRVVSVLTVLHQDWLNGKEYKCKVSNKGLPSSIEKTISKAKGQPREPQVYTLPPSQEEMTKNQVSLTCLVKGFYPSDIAVEWESNGQPENNYKTTPPVLDSDGSFFLYSRLTVDKSRWQEGNVFSCSVMHEALHNHYTQESLSLSLGGGGGSGGGGSAPAPAPAPAPAPAPAPAPAPGGGGSGGGGSDHCPLGPGRCCRLHTVRASLEDLGWADWVLSPREVQVTMCIGACPSQFRAANMHAQIKTSLHQLKPDTVPAPCCVPASYNPMVLIQKTDTGVSLQTYDDLLAKDCHCI
B4: Fc-GDF15 fusion protein M32 (Fc fusion)
chain: APEAAGGPSVFLFPPKPKDTLMISRTPEVTCVVVDVSQEDPEVQFNWYVDGVEVHNAKTKPREEQFNSTYRVVSVLTVLHQDWLNGKEYKCKVSNKGLPSSIEKTISKAKGQPREPQVYTLPPSQEEMTKNQVSLTCLVKGFYPSDIAVEWESNGQPENNYKTTPPVLDSDGSFFLYSRLTVDKSRWQEGNVFSCSVMHEALHNHYTQESLSLSLGGGGGSGGGGSAPAPAPAPAPAPAPAPAPAPGGGGSGGGGSDHCPLGPGRCCRLHTVRASLEDLGWADWVLSPREVQVTMCIGACPSQFRAANTHAQIKTSLHRLKPDTVPAPCCVPASYNPMVLIQKTDTGVSLQTYDDLLAKDCHCI
B5: Fc-GDF15 fusion protein M34 (Fc fusion)
chain: APEAAGGPSVFLFPPKPKDTLMISRTPEVTCVVVDVSQEDPEVQFNWYVDGVEVHNAKTKPREEQFNSTYRVVSVLTVLHQDWLNGKEYKCKVSNKGLPSSIEKTISKAKGQPREPQVYTLPPSQEEMTKNQVSLTCLVKGFYPSDIAVEWESNGQPENNYKTTPPVLDSDGSFFLYSRLTVDKSRWQEGNVFSCSVMHEALHNHYTQESLSLSLGGGGGSGGGGSAPAPAPAPAPAPAPAPAPAPGGGGSGGGGSDHCPLGPGRCCRLHTVRASLEDLGWADWVLSPREVQVTMCIGACPSQFRAANMHAQIKTSLHRLKPDTVPAPCCVPSSYNPMVLIQKTDTGVSLQTYDDLLAKDCHCI
B6: Fc-GDF15 fusion protein M51 (Fc fusion)
chain: APEAAGGPSVFLFPPKPKDTLMISRTPEVTCVVVDVSQEDPEVQFNWYVDGVEVHNAKTKPREEQFNSTYRVVSVLTVLHQDWLNGKEYKCKVSNKGLPSSIEKTISKAKGQPREPQVYTLPPSQEEMTKNQVSLTCLVKGFYPSDIAVEWESNGQPENNYKTTPPVLDSDGSFFLYSRLTVDKSRWQEGNVFSCSVMHEALHNHYTQNSLSLSLGGGGGSGGGGSAPAPAPAPAPAPAPAPAPAPGGGGSGGGGSDHCPLGPGRCCRLHTVRASLEDLGWADWVLSPREVQVTMCIGACPSQFRAANMHAQIKTSLHRLKPDTVPAPCCVPASYNPMVLIQKTDTGVSLQTYDDLLAKDCHCI
B7: Fc-GDF15 fusion protein M36 (Fc fusion)
chain: APEAAGGPSVFLFPPKPKDTLMISRTPEVTCVVVDVSQEDPEVQFNWYVDGVEVHNAKTKPREEQFNSTYRVVSVLTVLHQDWLNGKEYKCKVSNKGLPSSIEKTISKAKGQPREPQVYTLPPSQEEMTKNQVSLTCLVKGFYPSDIAVEWESNGQPENNYKTTPPVLDSDGSFFLYSRLTVDKSRWQEGNVFSCSVMHEALHNHYTQESLSLSLGGGGGSGGGGSAPAPAPAPAPAPAPAPAPAPGGGGSGGGGSDHCPLGPGRCCRLHTVRASLEDLGWADWVLSPREVQVTMCIGACPSQFRAANMHAQIKTSLHRLKPDTVPAPCCVPASYNPMVLIQKTDTGVSLQTYDDLLAQDCHCI
B8: Fc-GDF15 fusion protein M31 (Fc fusion)
chain: APEAAGGPSVFLFPPKPKDTLMISRTPEVTCVVVDVSQEDPEVQFNWYVDGVEVHNAKTKPREEQFNSTYRVVSVLTVLHQDWLNGKEYKCKVSNKGLPSSIEKTISKAKGQPREPQVYTLPPSQEEMTKNQVSLTCLVKGFYPSDIAVEWESNGQPENNYKTTPPVLDSDGSFFLYSRLTVDKSRWQEGNVFSCSVMHEALHNHYTQESLSLSLGGGGGSGGGGSAPAPAPAPAPAPAPAPAPAPGGGGSGGGGSDHCPLGPGRCCRLHTVRASLEDLGWADWVLSPREVQVTMCIGACPSQFRAENMHAQIKTSLHRLKPDTVPAPCCVPASYNPMVLIQKTDTGVSLQTYDDLLAKDCHCI
B9: Fc-GDF15 fusion protein M30 (Fc fusion)
chain: APEAAGGPSVFLFPPKPKDTLMISRTPEVTCVVVDVSQEDPEVQFNWYVDGVEVHNAKTKPREEQFNSTYRVVSVLTVLHQDWLNGKEYKCKVSNKGLPSSIEKTISKAKGQPREPQVYTLPPSQEEMTKNQVSLTCLVKGFYPSDIAVEWESNGQPENNYKTTPPVLDSDGSFFLYSRLTVDKSRWQEGNVFSCSVMHEALHNHYTQESLSLSLGGGGGSGGGGSAPAPAPAPAPAPAPAPAPAPGGGGSGGGGSDHCPLGPGRCCRLHTVRASLEDLGWADWVLSPREVQVTMCIGACPSQFRSANMHAQIKTSLHRLKPDTVPAPCCVPASYNPMVLIQKTDTGVSLQTYDDLLAKDCHCI
B10: Fc-GDF15 fusion protein M35 (Fc fusion)
chain: APEAAGGPSVFLFPPKPKDTLMISRTPEVTCVVVDVSQEDPEVQFNWYVDGVEVHNAKTKPREEQFNSTYRVVSVLTVLHQDWLNGKEYKCKVSNKGLPSSIEKTISKAKGQPREPQVYTLPPSQEEMTKNQVSLTCLVKGFYPSDIAVEWESNGQPENNYKTTPPVLDSDGSFFLYSRLTVDKSRWQEGNVFSCSVMHEALHNHYTQESLSLSLGGGGGSGGGGSAPAPAPAPAPAPAPAPAPAPGGGGSGGGGSDHCPLGPGRCCRLHTVRASLEDLGWADWVLSPREVQVTMCIGACPSQFRAANMHAQIKTSLHRLKPDTVPAPCCVPASYNPMVLIQKTDEGVSLQTYDDLLAKDCHCI
B11: Fc-GDF15 fusion protein M39 (Fc fusion)
chain: APEAAGGPSVFLFPPKPKDTLMISRTPEVTCVVVDVSQEDPEVQFNWYVDGVEVHNAKTKPREEQFNSTYRVVSVLTVLHQDWLNGKEYKCKVSNKGLPSSIEKTISKAKGQPREPQVYTLPPSQEEMTKNQVSLTCLVKGFYPSDIAVEWESNGQPENNYKTTPPVLDSDGSFFLYSRLTVDKSRWQEGNVFSCSVMHEALHNHYTQQSLSLSLGGGGGSGGGGSAPAPAPAPAPAPAPAPAPAPGGGGSGGGGSGDHCPLGPGRCCRLHTVRASLEDLGWADWVLSPREVQVTMCIGACPSQFRAANMHAQIKTSLHRLKPDTVPAPCCVPASYNPMVLIQKTDTGVSLQTYDDLLAKDCHCI
B12: Fc-GDF15 fusion protein M50 (Fc fusion)
chain: APEAAGGPSVFLFPPKPKDTLMISRTPEVTCVVVDVSQEDPEVQFNWYVDGVEVHNAKTKPREEQFNSTYRVVSVLTVLHQDWLNGKEYKCKVSNKGLPSSIEKTISKAKGQPREPQVYTLPPSQQEMTKNQVSLTCLVKGFYPSDIAVEWESNGQPENNYKTTPPVLDSDGSFFLYSRLTVDKSRWQEGNVFSCSVMHEALHNHYTQQSLSLSLGGGGGSGGGGSAPAPAPAPAPAPAPAPAPAPGGGGSGGGGSGDHCPLGPGRCCRLHTVRASLEDLGWADWVLSPREVQVTMCIGACPSQFRAANMHAQIKTSLHRLKPDTVPAPCCVPASYNPMVLIQKTDTGVSLQTYDDLLAKDCHCI
B13: Fc-GDF15 fusion protein M3 (Fc fusion)
chain: APEAAGGPSVFLFPPKPKDTLMISRTPEVTCVVVDVSQEDPEVQFNWYVDGVEVHNAKTKPREEQFNSTYRVVSVLTVLHQDWLNGKEYKCKVSNKGLPSSIEKTISKAKGQPREPQVYTLPPSQEEMTKNQVSLTCLVKGFYPSDIAVEWESNGQPENNYKTTPPVLDSDGSFFLYSRLTVDKSRWQEGNVFSCSVMHEALHNHYTQESLSLSLGGGGGSGGGGSAPAPAPAPAPAPAPAPAPAPGGGGSGGGGSGDHCPLGPGRCCRLHTVRASLEDLGWADWVLSPREVQVTMCIGACPSQFRAANMHAQIKTSLHRLKPDTVPAPCCVPASYNPMVLIQKTDTGVSLQTYDDLLAKDCHCI

These binders were tested against T1, human GFRAL (UniProtKB-Q6UXVO) (assay: cell-based or functional assay).

In order of rising “Relative activity ratio (native GDF15 EC50: Fc-GDF15 construct EC50), ERK1/2 phosphorylation HTRF in HEK293T cells expressing human GFRAL and RET” value:
1. B10  0.19 ratio
2. B7  0.82 ratio
3. B3  0.84 ratio
4. B8  0.87 ratio
5. B5  0.9 ratio
6. B2  1.26 ratio
7. B4  1.26 ratio
8. B12  1.5 ratio
9. B9  1.51 ratio
10. B11  2.62 ratio
11. B6  3.16 ratio
12. B1  3.17 ratio
13. B13  4.53 ratio
